In PMC10858482, “Computational design and engineering of self-assembling multivalent microproteins with therapeutic potential against SARS-CoV-2” (Journal of Nanobiotechnology, 2024) one finds Kd data, which are given here for one molecule.

The target of the assay is T1, RBD of the S protein of SARS-CoV-2 (Omicron BA.1) (SARS-CoV-2 Omicron BA.1, strain).
T1 construct: also called RBD (Omicron BA.1)
As to the kind of experiment: BLI; Octet RED96e; RBD (Omicron BA.1) immobilised on streptavidin (SA) biosensors; analyte 500-31.25 nM Nb67 or 100-3.125 nM Tr67 in 1x PBS, 0.02% Tween-20, 0.1% BSA; association 1 min, dissociation 3 min; 1:1 binding model. The conditions noted are these: both partners purified. On the technique in general: In BLI a coated tip is dipped into the sample, and binding shifts an interference pattern.

B1: nanobody Nb67 (VHH)
VHH: EVQLVESGGGLVQTGGSLRLSCALSGYTFSIFPTAWFRQAPGKEREFVAGIRWNGSTRDYTEYADFVKGRFTISRDNAKNMVYLQMISLKPEDTALYYCAASDGVIDGTNANAYRYWGQGTQVTVSS
notes: also called monovalent Nb67
As for B1, the affinity, expressed as Kd, was 15.2 nM.
